From patent publication US20090181459A1 (published 2009)

T1: mouse glucocorticoid-induced tumor necrosis factor receptor (mGITR), expressed on the cell surface (mouse, UniProt O35714 20-228)
T1 sequence (looked up): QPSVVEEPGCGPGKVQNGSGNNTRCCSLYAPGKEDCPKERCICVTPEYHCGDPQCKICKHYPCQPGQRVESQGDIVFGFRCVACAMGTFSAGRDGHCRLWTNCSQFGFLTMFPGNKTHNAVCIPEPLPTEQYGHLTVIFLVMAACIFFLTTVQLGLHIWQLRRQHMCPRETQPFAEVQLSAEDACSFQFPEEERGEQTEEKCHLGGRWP


Key:
[1] = biological target: mouse glucocorticoid-induced tumor necrosis factor receptor (mGITR), expressed on the cell surface (mouse) (UniProt O35714); test: flow cytometry on Th2 clone R2.4; isotype control background
[2] = biological target: mouse glucocorticoid-induced TNF receptor ligand (mGITRL), expressed on the cell surface (mouse) (UniProt Q7TS55); test: flow cytometry, peritoneal cells gated on F4/80+; isotype control background
[3] = biological target: mouse glucocorticoid-induced TNF receptor ligand (mGITRL), expressed on the cell surface (mouse) (UniProt Q7TS55); test: flow cytometry, spleen cells gated on B220+ B cells; isotype control background
[4] = biological target: mouse glucocorticoid-induced tumor necrosis factor receptor (mGITR), expressed on the cell surface (mouse) (UniProt O35714); test: flow cytometry on Th1 clone R2.2; isotype control background
[5] = biological target: mouse glucocorticoid-induced TNF receptor ligand (mGITRL), expressed on the cell surface (mouse) (UniProt Q7TS55); test: flow cytometry, spleen cells gated on F4/80+ macrophages; isotype control background
[6] = biological target: T1, mouse glucocorticoid-induced tumor …; test: cell-based or functional assay

MFI [2]	Median fluorescence intensity (MFI) [3]	Median fluorescence intensity (MFI) [5]	Molecule	Median fluorescence intensity (MFI) [1]	Median fluorescence intensity (MFI) [4]	Luciferase activity (NF-kB reporter plasmid), 48-h incubation [6]
255	7.7	25.4	isotype control antibody (rat anti-canine CD8 antibody, IgG1)	50.5	35.2	
			mouse glucocorticoid-induced TNF receptor ligand (mGITRL), expressed on the cell surface (ligand) MEEMPLRESSPQRAERCKKSWLLCIVALLLMLLCSLGTLIYTSLKPTAIESCMVKFELSSSKWHMTSPKPHCVNTTSDGKLKILQSGTYLIYGQVIPVDKKYIKDNAPFVVQIYKKNDVLQTLMNDFQILPIGGVYELHAGDNIYLKFNSKDHIQKNNTYWGIILMPDLPFIS			6 fold
